Experimental data reported in article PMC12669767.
Positions count from the first letter of the chain named.

B1: ALFA-tagged TXNIP (thioredoxin interacting protein), expressed in HEK293T, Q9H3M7 PPCY331AACA (protein)
chain: MVMFKKIKSFEVVFNDPEKVYGSGEKVAGRVIVEVCEVTRVKAVRILACGVAKVLWMQGSQQCKQTSEYLRYEDTLLLEDQPTGENEMVIMRPGNKYEYKFGFELPQGPLGTSFKGKYGCVDYWVKAFLDRPSQPTQETKKNFEVVDLVDVNTPDLMAPVSAKKEKKVSCMFIPDGRVSVSARIDRKGFCEGDEISIHADFENTCSRIVVPKAAIVARHTYLANGQTKVLTQKLSSVRGNHIISGTCASWRGKSLRVQKIRPSILGCNILRVEYSLLIYVSVPGSKKVILDLPLVIGSRSGLSSRTSSMASRTSSEMSWVDLNIPDTPEAAACAMDVIPEDHRLESPTTPLLDDMDGSQDSPIFMYAPEFKFMPPPTYTEVDPCILNNNVQ
B2: ALFA-tagged TXNIP (thioredoxin interacting protein), expressed in HEK293T, Q9H3M7 PPCY331AACA; PPTY375AATA (protein)
chain: B1 chain with P375A, P376A, Y378A

Target: ITCH, endogenous in HEK293T, Q96J02
Assay: co-immunoprecipitation of ALFA-TXNIP, label-free quantitative interactome (mass spectrometry)
Details: chain shown with the change, immunoprecipitated from HEK293T cells, n = 3, read off a plot; for response (normalized abundance): abundances normalized to unspecific background binding to empty beads, scatter plot

ITCH, endogenous in HEK293T, Q96J02, sequence (Q96J02 whole entry): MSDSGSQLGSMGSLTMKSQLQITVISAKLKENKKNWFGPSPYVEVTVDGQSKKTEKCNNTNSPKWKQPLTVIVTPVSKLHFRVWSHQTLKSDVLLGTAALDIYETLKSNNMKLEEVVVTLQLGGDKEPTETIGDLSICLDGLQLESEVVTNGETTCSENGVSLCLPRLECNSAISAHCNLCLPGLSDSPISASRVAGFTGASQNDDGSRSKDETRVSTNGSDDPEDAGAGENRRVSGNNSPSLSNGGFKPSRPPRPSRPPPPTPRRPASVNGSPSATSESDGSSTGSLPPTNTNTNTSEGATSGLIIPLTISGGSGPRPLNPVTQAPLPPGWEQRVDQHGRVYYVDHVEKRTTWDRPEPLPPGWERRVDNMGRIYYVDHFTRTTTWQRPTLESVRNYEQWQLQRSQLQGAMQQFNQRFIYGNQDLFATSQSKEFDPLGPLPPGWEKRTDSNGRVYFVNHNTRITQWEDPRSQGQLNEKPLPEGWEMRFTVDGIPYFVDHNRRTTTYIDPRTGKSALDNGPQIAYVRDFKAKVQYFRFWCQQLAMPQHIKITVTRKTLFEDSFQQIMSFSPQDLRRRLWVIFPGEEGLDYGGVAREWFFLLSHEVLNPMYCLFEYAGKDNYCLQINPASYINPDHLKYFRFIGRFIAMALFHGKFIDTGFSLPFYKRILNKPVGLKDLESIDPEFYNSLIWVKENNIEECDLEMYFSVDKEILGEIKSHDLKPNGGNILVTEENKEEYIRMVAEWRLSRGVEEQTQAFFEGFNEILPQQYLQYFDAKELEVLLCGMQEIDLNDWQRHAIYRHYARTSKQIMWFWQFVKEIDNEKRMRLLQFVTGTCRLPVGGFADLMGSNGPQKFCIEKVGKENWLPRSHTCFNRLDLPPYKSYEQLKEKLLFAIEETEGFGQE

Binder | response (normalized abundance) (parent: est. 3.0e8) | other: log2 PPxY331/WT [log2] | response (normalized abundance) (parent: est. 3.5e8) | other: log2 PPxY/WT (volcano plot) [log2]
B1 | 1.5e+08 | -1.1 | – | –
B2 | – | – | 150000 | -4.5
